Measurements published in patent publication US8227408B2, “Leptin as an anti-amyloidogenic biologic and methods for delaying the onset and reducing Alzheimer's disease-like pathology” (Neurotez, Inc., priority 2005, dated 2012).

Tests used:
[1] = system: Neuro2a cells stably transfected with hyg-sa134 (SEAP-APP); test: Aβ production by Neuro2a cells stably transfected with hyg-sa134 (total Aβ in media, sandwich ELISA); assay type: cell-based, mouse
Experimental: Neuro2a (mouse neuroblastoma) stably transfected with hyg-sa134, a pcDNA3.1/Hygro plasmid (Invitrogen, CA) modified to express a fusion protein of secreted alkaline phosphatase (SEAP) and a fragment of APP consisting of the C-terminal 134 amino acids (“CAPP134”) (SEQ ID NO:10) were maintained in culture as described ([…]) in the presence of 400 μg/ml of hygromycin. SEQ ID NO: 11 is the DNA sequence of the entire hygsa134 vector, which was derived from the pcDNA3.1/Hygro vector by genetic manipulation to insert the DNA sequences for SEAP and CAPP134. The SEAP-CAPP cDNA insert from hyg-sa134 was also subcloned into an adenoviral vector using the Adeno Vator system (Qbiogene, Calif.). The DNA sequence for SEAP (corresponding to nucleotides 981-2441 of hyg-sa134) (SEQ ID NO: 9) is located 5′ to the DNA sequence (SEQ ID NO: 12) coding for CAPP134 (SEQ ID NO: 10).
SY5Y and hyg-sa134-Neuro2a cells were treated at 80% confluency (see below). Primary neural cultures from mouse embryos were allowed to grow for 6-12 days following plating and prior to viral infection and treatments.
About 5 μg/ml or about 10 μg/ml water-soluble cholesterol was added to cultures for 2 or 5 hours. Water soluble cholesterol (Sigma-Aldrich, MO) is a solution made of cholesterol balanced with cyclodextrin CDX (40 mg cholesterol per gr CDX). For comparison, cultures were treated with the equivalent amount of the resin alone, which leads to depletion of cholesterol in the cultures (Simons et al., Proc Natl Acad Sci USA. 95:6460-4 (1998)).
About 100 ng/ml or about 400 ng/ml leptin (Harbor-UCLA, CA), was added in cell culture medium for 2 or 5 h. Cells were approximately 80% confluent at the time of treatment. Peptide YY (3-36) (Phoenix Pharmaceuticals, Inc., CA), and CNTF (Sigma-Aldrich, Mo.) were added at about 25 μM or 150 μM for the same incubation periods. TOFA, etomoxir (Research Biochemicals International, MA) and cerulenin (Sigma-Aldrich, Mo.) were used as described below.
For the determination of Aβ peptide several methodologies also were used. SY5Y cells in culture were metabolically labeled with ^35S-[Met] as described (Figueiredo-Pereira et al. J Neurochem. 72:1417-22 (1999)), followed by immunoprecipitation, resolution of the immunoprecipitates on SDS-PAGE, autoradiography, and densitometric analysis of the autoradiogram. Neuro2a cells were stably transfected with hyg-sa134 (K. Sambamurti, S. Carolina Medical Center, SC) and Aβ40 (SEQ ID NO: 4) plus Aβ42 (SEQ ID NO: 5) plus Aβ43 (SEQ ID NO: 6) (Total Aβ) in the medium then was quantified by sandwich ELISAs developed with 4G8 and 6 ε10 monoclonal antibodies (Signet, Mass.) as described (Figueiredo-Pereira et al., J Neurochem. 72:1417-22 (1999)). Commercially available ELISA kits (KMI Diagnostics, MN) were used for the separate determination of Aβ40 (SEQ ID NO:4) and Aβ42/43 (SEQ ID NO:5/SEQ ID NO:6) in formic acid extracts of mice brains. Flotillin was detected using monoclonal anti-flotillin-1 antibodies (BD Biosciences, CA). Actin was detected using monoclonal anti-actin antibodies (Research Diagnostics, Inc, NJ).
Human (SYSY) or mouse neuroblastoma cell-lines (Neuro2a) commonly are used to study amyloid β metabolism in vitro. Neuro2a cells are stably transfected with hyg-sa134 (SEQ ID NO: 11), a plasmid driving the expression of a recombinant fusion protein containing the human C-terminal fragment of APP of about 134 amino acids, CAPP134 (SEQ ID NO: 10). Here, 5Y5Y or Neuro2a cultures were treated for 2 or 5 h with about 100 ng/ml or about 400 ng/ml leptin (FIG. 4a, 4b). Similarly, primary neurons from embryonic rat brain, infected with an adenovirus to direct the expression of CAPP134 (SEQ ID NO:10) also were treated according to the same regimen. […]

β-secretase = test: C99/C83 accumulation in SY5Y cells in presence of γ-secretase inhibitors (Western blot); assay type: cell-based, human; details: 5 h
[2] = system: Neuro2a cells stably transfected with hyg-sa134 (SEAP-APP); test: Aβ production by Neuro2a cells stably transfected with hyg-sa134 (total Aβ in media, sandwich ELISA); assay type: cell-based, mouse; details: 5 h; about 400 ng/ml leptin alone or 10 μM water-soluble cholesterol alone; FIG. 4b

B1: Leptin: peptide hormone controlling adaptive metabolic mechanisms to energy availability; leptin (Harbor-UCLA) in vitro, recombinant murine leptin in mice (protein, UniProt P41160 22-167, looked up)
Leptin: VPIQKVQDDTKTLIKTIVTRINDISHTQSVSAKQRVTGLDFIPGLHPILSLSKMDQTLAVYQQVLTSLPSQNVLQIANDLENLRDLLHLLAFSKSCSLPQTSGLQKPESLDGVLEASLYSTEVVALSRLQGSLQDILQQLDVSPEC
Aβ production / levels of Aβ in the media (in words) ([1]; 2 or 5 h treatment): dose- and time-dependent decrease
levels of Aβ detected in the media (percentage of corresponding controls), leptin co-administered with cholesterol ([1]; 5 h, highest concentrations of leptin, co-administered with cholesterol, FIG. 4b): 150±4%
Neuro2a/SEAP-APP Aβ(% control) ([1]; total Aβ in conditioned media, 5 h, concentration (TOFA 200 μM, cerulenin 200 μM, etomoxir 40 μM, peptide YY (3-36) 25 μM, CNTF 25 μM, leptin 400 ng/ml), mean ± SEM, 4 experiments, NS = non-significant): 56 ± 5 % control
cholesterol-induced increase in C99 (β-secretase; 10 μM cholesterol in the presence of 400 ng/ml leptin): abolished
C99 level (β-secretase; with L-685,458 (100 nM) or Z-VL-CHO (100 μM), 10 μM cholesterol or 400 ng/ml leptin alone): also was observed in the absence of cholesterol
levels of Aβ detected in the media (percentage of corresponding controls) [2]: 56±5%
